Measurements as given in patent US6492116, “Assay for identifying inhibitors of the interaction between proteins p53 and dm2” (Cancer Research Campain Technology Ltd.).

Biological target: p53D30 (human p53 residues 1-362) (Homo sapiens, UniProt P04637 SEQ:1-362)
Experiment: EMSA; 50 mM Tris-HCl, 50 mM NaCl, 5% glycerol, 0.1% Triton X-100, 10 mM DTT, 50 ug/ml poly(dI-dC), pH 7.6, 22 C; monoclonal antibodies included as mentioned; gel result not shown in the text
Conditions: chain copies: 4; label: 33P 5' end; HindIII-compatible 5' overhangs
Protocol: A 20 μl reaction volume containing 50 mM Tris. HCI, 50 mM NaCI, 5% (v/v) glycerol, 0.1% (v/v) Triton X-100, 10 mM DTT and 50 μg/ml polydeoxyinosinic-deoxycytidylic acid–pH=7.6 (binding buffer) are incubated for 30 min at 22° C. in the presence of the indicated amounts of p53D30, of radiolabelled oligonucleotides and of the mentioned monoclonal antibodies. Reactions are loaded onto a native 4% polyacrylamide gel containing 0.5×Tris.HCI–boric acid–pH=8.0 which had undergone pre-electrophoresis at 200 V for 45 min at 4 ° C. Electrophoresis is continued at 200 V from 90 to 120 min at 4° C. Gels are dried prior exposure to X-ray film (Amersham Hyperfilm-MP).

Sequence of p53D30 (human p53 residues 1-362) (P04637 1-362): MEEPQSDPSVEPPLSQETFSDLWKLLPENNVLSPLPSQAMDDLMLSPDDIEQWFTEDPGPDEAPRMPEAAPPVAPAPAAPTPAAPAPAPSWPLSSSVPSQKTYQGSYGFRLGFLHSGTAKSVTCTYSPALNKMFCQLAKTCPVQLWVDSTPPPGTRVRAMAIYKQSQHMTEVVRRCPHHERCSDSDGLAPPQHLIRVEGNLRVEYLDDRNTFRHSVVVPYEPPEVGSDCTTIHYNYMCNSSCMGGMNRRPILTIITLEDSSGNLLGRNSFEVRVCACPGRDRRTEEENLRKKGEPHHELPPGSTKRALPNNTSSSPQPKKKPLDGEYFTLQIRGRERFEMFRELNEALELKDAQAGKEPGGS

B1: p53 consensus site oligonucleotide I/II (dsDNA)
DNA 1: AGCTTAGACATGCCTAGACATGCCTA
DNA 2: AGCTTAGGCATGTCTAGGCATGTCTA
Does B1 bind?
Result: binds
